# Measured values reported in patent publication US20190119406.
# T1: Mutant OB chain (short chain, hinge-CH2-CH3 with T394D, P395D, P396D) [IgG part: P01857]
# T1 chain: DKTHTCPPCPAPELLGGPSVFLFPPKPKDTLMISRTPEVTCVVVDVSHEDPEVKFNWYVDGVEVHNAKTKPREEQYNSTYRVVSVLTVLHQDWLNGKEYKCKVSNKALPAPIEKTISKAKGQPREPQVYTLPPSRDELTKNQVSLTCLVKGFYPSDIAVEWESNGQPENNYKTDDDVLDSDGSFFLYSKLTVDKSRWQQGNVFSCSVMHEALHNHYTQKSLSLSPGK
# Target: T1, Mutant OB chain (short chain, …)
# Test: co-transfection of OA and OB in HEK293, protein A bead pull-down, SDS-PAGE (FIGS. 3, 4 and 6)
protein,measurement,value
"Mutant OA chain (long chain, CH1-hinge-CH2-CH3 with P395K, P396K, V397K) (protein) ASTKGPSVFPLAPSSKSTSGGTAALGCLVKDYFPEPVTVSWNSGALTSGVHTFPAVLQSSGLYSLSSVVTVPSSSLGTQTYICNVNHKPSNTKVDKKVEPKSCDKTHTCPPCPAPELLGGPSVFLFPPKPKDTLMISRTPEVTCVVVDVSHEDPEVKFNWYVDGVEVHNAKTKPREEQYNSTYRVVSVLTVLHQDWLNGKEYKCKVSNKALPAPIEKTISKAKGQPREPQVYTLPPSRDELTKNQVSLTCLVKGFYPSDIAVEWESNGQPENNYKTTKKKLDSDGSFFLYSKLTVDKSRWQQGNVFSCSVMHEALHNHYTQKSLSLSPGK",yield of heterodimer,high yield of heterodimer (above 95%)
